Among the data in patent US20080058636A1, “METHODS OF MYOCARDIAL IMAGING” (Epix Pharmaceuticals, Inc., priority 2005, published 2008) are Human binding and Rat binding values, retold here.

To fix the notation:
B1: Compound ID 922 (peptide)
chain: GQWNCTTLFPHHYCLYG
B2: Compound ID 949 (peptide)
chain: GKWHCTTYFPHHYCLYY
B3: Compound ID 947 (peptide)
chain: GKWHCTTYFPHYYCLYG
B4: Compound ID 924 (peptide)
chain: GQWHCTTLFPHNYCLYG
B5: Compound ID 923 (peptide)
chain: GQWHCTTLFPNHYCLYG
B6: Compound ID 956 (peptide)
chain: GQWKCTTRFPHHYCLYG
B7: Compound ID 930 (peptide)
chain: GKWHCTTLFPHHYCLYG
B8: Compound ID 936 (peptide)
chain: GQWHCTDRFPHHYCLYG
B9: Compound ID 937 (peptide)
chain: AWHCTTRFPAHYCLYG
B10: Compound ID 927 (peptide)
chain: GQWHCTTLFPHHYCIYG
B11: Compound ID 921 (peptide)
chain: GQWHCTYLFPHHYCLYG
B12: Compound ID 928 (peptide)
chain: GQWHCTTLFPHHYCVYG
B13: Compound ID 938 (peptide)
chain: GQWHCTTRFAHHYCLYG
B14: Compound ID 929 (peptide)
chain: GQWHCTTFFPHHYCLYG
B15: Compound ID 942 (peptide)
chain: GKWHCTTYFPHHYCVYG
B16: Compound ID 948 (peptide)
chain: GKWHCTTYFPHWYCLYG
B17: Compound ID 946 (peptide)
chain: GKWHCTTYFPYHYCLYG
B18: Compound ID 945 (peptide)
chain: GKWHCYTYFPHHYCVYY
B19: Compound ID 931 (peptide)
chain: GQWHCTTRFPHHYCFYG
B20: Compound ID 940 (peptide)
chain: GQWHCTKRFPHHYCLYG

rat collagen (acid soluble, type I, rat tail, Upstate 08-115) (rat), sequence (P02454 152-1207, chain 1 of 2): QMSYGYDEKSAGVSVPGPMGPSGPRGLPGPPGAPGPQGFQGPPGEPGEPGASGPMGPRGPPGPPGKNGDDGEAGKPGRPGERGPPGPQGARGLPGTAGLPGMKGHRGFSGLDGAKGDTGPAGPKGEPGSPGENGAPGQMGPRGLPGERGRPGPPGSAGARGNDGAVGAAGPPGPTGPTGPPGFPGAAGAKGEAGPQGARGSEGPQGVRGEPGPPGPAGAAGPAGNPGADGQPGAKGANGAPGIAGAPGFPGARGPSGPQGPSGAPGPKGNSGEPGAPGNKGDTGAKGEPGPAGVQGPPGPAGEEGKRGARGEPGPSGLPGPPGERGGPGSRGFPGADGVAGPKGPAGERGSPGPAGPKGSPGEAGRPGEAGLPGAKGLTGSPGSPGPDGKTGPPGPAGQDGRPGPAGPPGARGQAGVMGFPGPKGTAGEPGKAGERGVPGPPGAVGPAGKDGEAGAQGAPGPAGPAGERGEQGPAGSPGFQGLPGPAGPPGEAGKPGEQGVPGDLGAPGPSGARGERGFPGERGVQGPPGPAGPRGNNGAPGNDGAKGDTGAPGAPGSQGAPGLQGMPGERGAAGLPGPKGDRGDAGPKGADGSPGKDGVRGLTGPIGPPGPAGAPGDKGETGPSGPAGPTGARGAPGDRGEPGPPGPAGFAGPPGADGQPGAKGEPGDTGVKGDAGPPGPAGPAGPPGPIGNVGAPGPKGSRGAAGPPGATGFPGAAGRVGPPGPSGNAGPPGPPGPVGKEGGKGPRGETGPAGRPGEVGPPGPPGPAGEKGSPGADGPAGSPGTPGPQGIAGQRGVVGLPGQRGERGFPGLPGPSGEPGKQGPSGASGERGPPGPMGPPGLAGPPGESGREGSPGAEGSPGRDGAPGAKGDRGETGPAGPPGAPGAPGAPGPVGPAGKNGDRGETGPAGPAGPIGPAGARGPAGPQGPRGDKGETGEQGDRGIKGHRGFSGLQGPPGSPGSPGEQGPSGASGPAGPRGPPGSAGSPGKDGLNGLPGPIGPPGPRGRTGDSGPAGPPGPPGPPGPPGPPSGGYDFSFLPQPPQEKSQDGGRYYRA
rat collagen (acid soluble, type I, rat tail, Upstate 08-115) (rat), sequence (P02466 86-1125, chain 2 of 2, further chain): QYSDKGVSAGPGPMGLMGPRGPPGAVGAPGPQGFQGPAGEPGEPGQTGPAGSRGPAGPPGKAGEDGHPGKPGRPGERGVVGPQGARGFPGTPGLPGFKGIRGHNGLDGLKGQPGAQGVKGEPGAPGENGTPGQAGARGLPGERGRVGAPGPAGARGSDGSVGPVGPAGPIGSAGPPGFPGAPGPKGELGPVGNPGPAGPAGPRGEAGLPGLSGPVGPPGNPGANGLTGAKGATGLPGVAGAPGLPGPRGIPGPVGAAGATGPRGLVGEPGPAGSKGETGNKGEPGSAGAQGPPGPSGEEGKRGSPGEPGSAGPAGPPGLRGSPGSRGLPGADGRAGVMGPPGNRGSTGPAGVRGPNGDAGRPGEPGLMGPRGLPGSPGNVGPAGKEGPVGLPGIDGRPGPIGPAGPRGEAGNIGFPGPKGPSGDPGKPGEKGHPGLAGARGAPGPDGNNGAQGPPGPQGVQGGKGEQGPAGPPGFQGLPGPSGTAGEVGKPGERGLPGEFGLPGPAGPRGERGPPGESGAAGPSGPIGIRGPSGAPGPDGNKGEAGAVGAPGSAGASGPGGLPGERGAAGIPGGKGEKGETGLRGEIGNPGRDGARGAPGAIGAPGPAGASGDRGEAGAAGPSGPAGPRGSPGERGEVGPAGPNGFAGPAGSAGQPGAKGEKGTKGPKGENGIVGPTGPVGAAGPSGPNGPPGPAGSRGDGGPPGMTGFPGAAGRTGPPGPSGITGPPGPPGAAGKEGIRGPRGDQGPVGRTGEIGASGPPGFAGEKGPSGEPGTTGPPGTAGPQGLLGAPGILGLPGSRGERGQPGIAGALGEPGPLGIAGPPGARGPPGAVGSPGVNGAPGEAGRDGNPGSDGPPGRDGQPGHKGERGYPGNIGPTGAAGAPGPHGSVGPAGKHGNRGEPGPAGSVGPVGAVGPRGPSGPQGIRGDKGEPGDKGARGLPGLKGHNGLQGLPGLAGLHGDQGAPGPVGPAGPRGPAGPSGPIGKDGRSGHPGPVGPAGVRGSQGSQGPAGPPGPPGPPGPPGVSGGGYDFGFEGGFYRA

One assay deals with human collagen type I (acid soluble, extracted from placenta, Sigma C7774) (human) (UniProt P02452). The assay can be described thus: dried collagen assay, 5 uM each.
human collagen type I (acid soluble, extracted from placenta, Sigma C7774) (human), sequence (P02452 162-1218 limits assumed, chain 1 of 2): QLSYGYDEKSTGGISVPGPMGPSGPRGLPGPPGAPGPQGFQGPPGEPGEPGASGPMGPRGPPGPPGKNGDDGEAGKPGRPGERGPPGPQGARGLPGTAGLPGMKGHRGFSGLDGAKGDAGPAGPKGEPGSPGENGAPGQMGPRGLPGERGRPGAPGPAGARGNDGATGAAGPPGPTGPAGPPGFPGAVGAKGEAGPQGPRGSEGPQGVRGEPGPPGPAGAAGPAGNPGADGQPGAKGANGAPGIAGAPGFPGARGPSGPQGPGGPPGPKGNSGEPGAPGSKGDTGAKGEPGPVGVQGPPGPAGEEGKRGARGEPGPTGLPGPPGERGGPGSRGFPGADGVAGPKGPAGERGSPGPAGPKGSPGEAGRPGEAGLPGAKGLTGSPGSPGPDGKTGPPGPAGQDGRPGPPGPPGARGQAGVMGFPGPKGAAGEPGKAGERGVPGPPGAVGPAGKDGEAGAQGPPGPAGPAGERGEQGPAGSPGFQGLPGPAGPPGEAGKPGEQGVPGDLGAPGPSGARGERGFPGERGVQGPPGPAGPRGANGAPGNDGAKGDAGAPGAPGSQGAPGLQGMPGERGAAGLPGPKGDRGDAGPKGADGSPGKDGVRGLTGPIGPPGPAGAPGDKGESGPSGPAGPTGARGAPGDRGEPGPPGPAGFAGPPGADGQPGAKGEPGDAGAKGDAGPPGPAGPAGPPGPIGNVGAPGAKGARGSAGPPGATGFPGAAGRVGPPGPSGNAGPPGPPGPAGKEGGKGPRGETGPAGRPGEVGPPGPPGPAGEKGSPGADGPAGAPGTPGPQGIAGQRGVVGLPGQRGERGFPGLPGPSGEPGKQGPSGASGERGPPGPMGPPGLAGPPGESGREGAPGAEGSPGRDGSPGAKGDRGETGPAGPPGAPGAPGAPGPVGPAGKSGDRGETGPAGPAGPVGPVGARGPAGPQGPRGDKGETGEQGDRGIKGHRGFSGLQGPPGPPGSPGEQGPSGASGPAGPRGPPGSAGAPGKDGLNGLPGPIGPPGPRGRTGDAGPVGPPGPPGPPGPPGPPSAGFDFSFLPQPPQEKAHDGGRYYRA
human collagen type I (acid soluble, extracted from placenta, Sigma C7774) (human), sequence (P08123 80-1119 limits assumed, chain 2 of 2, further chain): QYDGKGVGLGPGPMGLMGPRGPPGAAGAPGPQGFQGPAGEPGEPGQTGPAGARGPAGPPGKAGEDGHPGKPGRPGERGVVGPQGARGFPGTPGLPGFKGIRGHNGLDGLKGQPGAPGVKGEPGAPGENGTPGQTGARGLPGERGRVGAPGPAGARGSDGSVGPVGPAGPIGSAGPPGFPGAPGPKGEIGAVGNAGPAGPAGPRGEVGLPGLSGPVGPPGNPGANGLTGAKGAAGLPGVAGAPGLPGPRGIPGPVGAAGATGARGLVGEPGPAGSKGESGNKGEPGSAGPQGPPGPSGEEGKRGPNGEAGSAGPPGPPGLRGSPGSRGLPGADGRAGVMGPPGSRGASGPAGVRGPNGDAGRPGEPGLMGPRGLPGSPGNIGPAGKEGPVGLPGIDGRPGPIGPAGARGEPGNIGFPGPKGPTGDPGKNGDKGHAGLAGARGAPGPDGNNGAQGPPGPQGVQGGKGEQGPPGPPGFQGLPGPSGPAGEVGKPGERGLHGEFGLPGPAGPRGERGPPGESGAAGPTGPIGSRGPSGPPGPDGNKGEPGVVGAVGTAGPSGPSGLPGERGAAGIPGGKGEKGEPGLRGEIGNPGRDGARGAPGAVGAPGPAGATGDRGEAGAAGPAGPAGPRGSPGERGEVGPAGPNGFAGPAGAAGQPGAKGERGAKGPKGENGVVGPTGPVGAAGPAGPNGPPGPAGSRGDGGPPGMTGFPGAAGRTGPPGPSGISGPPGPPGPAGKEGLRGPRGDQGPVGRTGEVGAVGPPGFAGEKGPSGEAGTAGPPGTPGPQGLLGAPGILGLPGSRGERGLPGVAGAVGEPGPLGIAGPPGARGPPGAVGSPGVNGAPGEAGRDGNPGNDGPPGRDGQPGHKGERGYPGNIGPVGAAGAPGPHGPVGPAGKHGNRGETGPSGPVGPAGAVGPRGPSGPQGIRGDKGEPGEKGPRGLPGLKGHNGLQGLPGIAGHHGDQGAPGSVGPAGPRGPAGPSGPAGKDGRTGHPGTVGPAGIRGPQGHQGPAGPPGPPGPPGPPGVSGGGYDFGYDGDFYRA
On to B1, for which the Human binding stood at 68%.

B2 showed a Human binding of 72%.

With B3, the Human binding stood at 64%.

For the molecule B4, the Human binding amounted to 24%.

In turn, B5 displayed a Human binding of 28%.

Molecule B6 returned a Human binding of 39%.

The molecule B7 had a Human binding of 31%.

In turn, B8 yielded a Human binding of 9%.

Take B9: the Human binding came to 11%.

With B10, the Human binding is 64%.

B11 came in with a Human binding of 68%.

For the molecule B12, the Human binding was 73%.

For the molecule B13, the Human binding was determined as 16%.

With B14, the Human binding was found to be 27%.

Turning to B15, the Human binding is 78%.

Regarding B16, the Human binding came to 25%.

Consider B17, for which the Human binding turned out to be 71%.

On to B18, for which the Human binding amounted to 83%.

B19: the Human binding was determined as 70%.

B20 yielded a Human binding of 9%.

A further assay has as its target rat collagen (acid soluble, type I, rat tail, Upstate 08-115) (rat) (UniProt P02454). The assay can be described thus: dried collagen assay, 5 uM each.
B1 had a Rat binding of 58%.

Take B2: the Rat binding was 79%.

In turn, B3 returned a Rat binding of 57%.

With B4, the Rat binding came to 1%.

B5 registered a Rat binding of 10%.

For the molecule B6, the Rat binding is 15%.

B7 showed a Rat binding of 42%.

In turn, B8 had a Rat binding of 5%.

On to B9, for which the Rat binding worked out at 14%.

In turn, B10 had a Rat binding of 63%.

For B11, the Rat binding was determined as 35%.

Consider B12, for which the Rat binding is 80%.

In turn, B13 yielded a Rat binding of 13%.

Molecule B14 yielded a Rat binding of 34%.

B15 had a Rat binding of 67%.

Regarding B16, the Rat binding was 17%.

Take B17: the Rat binding was 68%.

Molecule B18 gave a Rat binding of 82%.

Take B19: the Rat binding was 83%.

B20: the Rat binding came to 8%.
